Measurements from patent publication US20210238276A1 (INTEGRAL MOLECULAR, published 2021).
Substitutions are numbered along the chain they refer to. Values belong to the molecule of their own block, whether it stands above or below them.

Legend:
Assay in all cases: flow cytometry, alanine-scan library in HEK-293T
[1] = target: T1, hsGLUT4 R265A (human, UniProt P14672 1-509)
T1 sequence: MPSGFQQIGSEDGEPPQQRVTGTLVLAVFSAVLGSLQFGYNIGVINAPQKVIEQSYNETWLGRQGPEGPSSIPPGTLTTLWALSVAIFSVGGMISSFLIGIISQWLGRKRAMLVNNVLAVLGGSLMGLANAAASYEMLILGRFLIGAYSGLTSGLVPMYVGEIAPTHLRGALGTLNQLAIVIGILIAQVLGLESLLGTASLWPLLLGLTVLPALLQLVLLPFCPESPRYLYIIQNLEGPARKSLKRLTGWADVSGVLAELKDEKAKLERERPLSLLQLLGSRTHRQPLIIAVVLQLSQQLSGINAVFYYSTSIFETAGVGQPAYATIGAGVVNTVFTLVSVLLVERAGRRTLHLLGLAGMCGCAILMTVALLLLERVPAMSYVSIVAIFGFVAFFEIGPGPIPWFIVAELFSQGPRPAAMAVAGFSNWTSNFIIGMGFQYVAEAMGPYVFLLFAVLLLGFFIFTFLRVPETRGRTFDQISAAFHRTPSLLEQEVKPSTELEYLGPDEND
Outline: (§1)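 HEK-293T cells expressing individual GLUT4 alanine mutants were stained 48 h post-transfection with anti-GLUT4 scFv MAbs (2 μg/ml), then biotinylated secondary and streptavidin-PerCP, and read by high-throughput flow cytometry. Where used, cytochalasin B (10 uM final) was given for 30 min before and during primary antibody staining.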

[2] = target: T2, hsGLUT4 I313A (human, UniProt P14672 1-509)
T2 sequence: T1 sequence with A265R, I313A
Outline: as §1

[3] = target: T3, hsGLUT4 G356A (human, UniProt P14672 1-509)
T3 sequence: T1 sequence with A265R, G356A
Outline: as §1

[4] = target: T4, hsGLUT4 L155A (human, UniProt P14672 1-509)
T4 sequence: T1 sequence with L155A, A265R
Outline: as §1

% of binding to wild type GLUT4 [1]: 101%
% of binding to wild type GLUT4 [2]: 85%
% of binding to wild type GLUT4 [3]: 90%
% of binding to wild type GLUT4 [4]: 91%
Molecule: 1F8 (antibody)

B1: AB108 (Fc fusion)
scFv: ALTQPSSVSANLGGTVKITCSGSSGSYGWYQQKAPGSAPVTLIYRNDKRPSDIPSRFSGSESGSTGTLTITGVQAEDEAVYFCGGYDSSAGYAAFGAGTTLTVLGQSSRSSGGGGSSGGGGSAVTLDESGGGLQTPGGALSLVCKASGFTFSSHGMGWVRQAPGKGLEWVGSISTGRYTFYAPAVKGRATISRDNGQSTLRLQLNNLRAEDTGTYYCTKCAGLNGCGGGEIDAWGHGTEVIVSS
notes: Bivalent scFv-Fc; also called MAb AB108; not shown: Fc fragment of human IgG1, cloned in frame with the scFv
% of binding to wild type GLUT4 [1]: 111%
% of binding to wild type GLUT4 [2]: 39%
% of binding to wild type GLUT4 [3]: 19%
% of binding to wild type GLUT4 [4]: 42%

% of binding to wild type GLUT4 [1]: 91%
% of binding to wild type GLUT4 [2]: 94%
% of binding to wild type GLUT4 [3]: 46%
% of binding to wild type GLUT4 [4]: 88%
B2: AB101 (scFv)
scFv: ALTQPSSVSANPGETVKITCSGSSNSYGWYQQKSPGSAPVTVIYYNDKRPSDIPSRFSGSKSDSTHTLTITGVRAEDEAVYFCGSYDSTYVGIFGAGTTLTVLGQSSRSSGGGGSSGGGGSAVTLDESGGGLQTPGGTLSLVCKASGFTFSSNAMGWVRQAPGKGLEWVAGISSDGRYTKYGSAVKGRATISRDNGQSTVRLQLNNLRAEDTGTYFCAKAFGNNYRRIYAGQIDAWGHGTEVIVSS
notes: Chicken-derived clone used as a control; the four lead clones were tested as scFv-human IgG1 Fc; also called MAb AB101

B3: AB111 (Fc fusion)
scFv: ALTQPSSVSANPGETVKITCSGSGSWYGWFQQKSPGSAPVTVIYSNDKRPSDIPSRFSGSKSGSTSTLTITGVQVEDEAVYYCGNWDIFGAGTTLTVLGQSSRSSGGGGSSGGGGSAVTLDESGGGLQTPGGALSLVCKASGFTFSSHGMGWVRQAPGKGLEWVASISTGRYTFYAPAVKGRATISRDNGQSTVRLQLNNLRAEDTATYYCTKCAGLNGCGGGEIDAWGHGTEVIVSS
notes: Bivalent scFv-Fc; also called MAb AB111; not shown: Fc fragment of human IgG1, cloned in frame with the scFv
% of binding to wild type GLUT4 [1]: 143%
% of binding to wild type GLUT4 [2]: 106%
% of binding to wild type GLUT4 [3]: 137%
% of binding to wild type GLUT4 [4]: 57%
